Tests used:
[1] = target: T1, recGST-SRC (full-length recombinant SRC, Sf9) (mouse, UniProt P05480 1-535); assay: pull-down; GST pull-down: 10 µg recGST, recBLK-FLAG or recSRC bound to Glutathione-Superflow Resin, incubated with 3 µg recCLDN6C for 1 h at room temperature; washed five times in 140 mM NaCl, 10 mM Na2HPO4, 1.8 mM KH2PO4, pH 7.5; immunoblot; settings: both partners purified
T1 construct: proto-oncogene tyrosine-protein kinase SRC, mouse, full-length; Src-FLAG subcloned into plEx/Bac-4; also called recSRC; source: Sf9 insect cells, transfected, purified (GST-tagged protein purification kit)

[2] = target: T2, recGST-BLK (full-length recombinant BLK, Sf9) (mouse, UniProt P16277 1-499); assay: as above; settings: both partners purified
T2 construct: tyrosine-protein kinase BLK, mouse, full-length; Blk-FLAG subcloned into plEx/Bac-4; also called recBLK; recBLK-FLAG; source: Sf9 insect cells, transfected, purified (GST-tagged protein purification kit)
T2 sequence (P16277 whole entry): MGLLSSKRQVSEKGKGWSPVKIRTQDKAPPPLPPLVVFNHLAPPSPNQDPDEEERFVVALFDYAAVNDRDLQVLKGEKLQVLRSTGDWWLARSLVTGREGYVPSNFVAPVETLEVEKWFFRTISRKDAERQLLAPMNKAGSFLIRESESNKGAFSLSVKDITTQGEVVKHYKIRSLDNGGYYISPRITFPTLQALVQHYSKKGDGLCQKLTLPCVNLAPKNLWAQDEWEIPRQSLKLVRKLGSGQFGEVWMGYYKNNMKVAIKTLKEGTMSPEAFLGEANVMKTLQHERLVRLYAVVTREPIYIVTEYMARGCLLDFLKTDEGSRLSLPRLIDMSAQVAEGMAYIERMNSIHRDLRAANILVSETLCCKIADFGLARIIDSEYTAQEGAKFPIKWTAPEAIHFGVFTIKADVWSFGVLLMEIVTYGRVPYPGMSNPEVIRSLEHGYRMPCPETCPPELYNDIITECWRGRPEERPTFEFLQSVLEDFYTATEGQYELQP

B1: recCLDN6C (recombinant C-terminal cytoplasmic domain of CLDN6, C185-V219) (domain or fragment, mouse, UniProt Q9Z262 185-219, looked up)
chain: CSSGGTQGPRHYMACYSTSVPHSRGPSEYPTKNYV
notes: claudin-6 (CLDN6), mouse, C-terminus C185-V219; source: recombinant, from plEx/Bac-4
B1: binds [1]; binds [2].

From publication PMC10341166, “The Src-Family Kinases SRC and BLK Contribute to the CLDN6-Adhesion Signaling” (Cells, 2023)
